# From patent publication US20090175866A1, “TREATMENT OF B-CELL MALIGNANCIES” (priority 2004, published 2009)
# B1: PRO-001: human anti-FGFR3 Fab from HuCAL library; VH-CDR3 SEQ ID NO:1, VL-CDR3 SEQ ID NO:10; VH SEQ ID NO:19, VL SEQ ID NO:28 (antibody, V domains shown)
# VH: QVQLQQSGPGLVKPSQTLSLTCAISGDSVSSNSAAWNWIRQSPGRGLEWLGRTYYRSKWYNDYAVSVKSRITINPDTSKNQFSLQLNSVTPEDTAVYYCARSYYPDFDYWGQGTLVTVSS
# VL: DIELTQPPSVSVAPGQTARISCSGDALGDKYASWYQQKPGQAPVLVIYDDSDRPSGIPERFSGSNSGNTATLTISGTQAEDEADYYCQSYDGPDLWVFGGGTKLTVLGQ
# Legend:
# [1] = biological target: T1, FGFR2 (Homo sapiens, UniProt P21802); experiment: FGF-stimulated proliferation of FDCP-FGFR2 cells (XTT); format: cell-based; details: up to 10 fold higher concentrations than the FDCP-FGFR3 IC50
# T1 construct: was transfected with full length FGFR1 (FDCP-FGFR1), FGFR2 (FDCP-FGFR2), FGFR3 (FDCP-FGFR3); expressed in transfected cells; host or cells: FDCP-1 mouse myeloid progenitor cell line
# T1 sequence (P21802 22-821, species assumed): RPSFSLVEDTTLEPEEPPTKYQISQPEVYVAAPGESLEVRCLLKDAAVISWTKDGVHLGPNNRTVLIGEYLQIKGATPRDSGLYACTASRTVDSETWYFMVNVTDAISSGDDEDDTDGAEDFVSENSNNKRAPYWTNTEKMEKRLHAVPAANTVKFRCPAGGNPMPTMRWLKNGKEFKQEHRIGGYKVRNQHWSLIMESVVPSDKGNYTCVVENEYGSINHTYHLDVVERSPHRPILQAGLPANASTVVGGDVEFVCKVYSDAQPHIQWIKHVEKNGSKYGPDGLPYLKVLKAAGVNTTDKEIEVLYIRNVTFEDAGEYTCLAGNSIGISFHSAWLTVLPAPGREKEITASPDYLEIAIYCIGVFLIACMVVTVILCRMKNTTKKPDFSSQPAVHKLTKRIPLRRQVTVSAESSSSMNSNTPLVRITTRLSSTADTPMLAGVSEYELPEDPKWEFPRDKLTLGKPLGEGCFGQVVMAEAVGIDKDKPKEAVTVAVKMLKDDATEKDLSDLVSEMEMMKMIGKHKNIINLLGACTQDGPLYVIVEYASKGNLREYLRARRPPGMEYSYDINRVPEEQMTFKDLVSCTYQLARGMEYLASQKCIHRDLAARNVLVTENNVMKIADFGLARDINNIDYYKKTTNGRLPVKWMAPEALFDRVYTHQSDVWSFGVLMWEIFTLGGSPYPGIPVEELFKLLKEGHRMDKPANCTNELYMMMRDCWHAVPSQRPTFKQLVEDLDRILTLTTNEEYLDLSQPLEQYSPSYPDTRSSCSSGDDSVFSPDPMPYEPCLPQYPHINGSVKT
# Text: FIG. 1D is a graph showing proliferation of FGFR expressing FDCP cells in the presence of increasing concentrations of PRO-001 as determined by XTT analysis. Data are the average of duplicate cultures. The X axis represents concentration of PRO-001 Fab. The Y axis represents % inhibition.
# Non-transformed rat chondrocyte cell line expressing PGFR3 in an inducible manner (RCJ-FGFR3) has been described previously (Rauchenberger R. et al. J. Biol. Chem. 2003; 278:38194-205). […]
# Cell viability was assessed by 3-(4,5-dimethylthiazol)-2,5-diphenyl tetrazolium (MTT) or (2,3-bis(2-methoxy-4-nitro-5-sulphophenyl)-5-[(phenylamino) carbonyl]-2H-tetrazolium hydroxide (XTT) dye absorbance where indicated. Cells were seeded in 96-well plates at a density of 20,000 (FDCP-1 cells), 5,000 (B9 cells) or 25,000 cells (MM cell lines) per well in culture medium. Cells were incubated in the absence or presence of one of the following cytokines: 10 ng/ml FGF9 and 5 μg/ml heparin, 1% murine IL-6, 50 ng/ml IGF-1 or 50 ng/ml human IL-6 where indicated and increasing concentrations of PRO-001, control antibody (purified human Fab) or 100 nM PD173074. […]
# [2] = biological target: FGFR3 (Homo sapiens, UniProt P22607); experiment: Flow cytometry staining of primary myeloma cells expressing FGFR3; format: binding; parameters: endogenous in cells; host or cells: primary myeloma cells from bone marrow of t(4;14)-positive MM patients; details: versus isotype control
# FGFR3, sequence (P22607 23-806): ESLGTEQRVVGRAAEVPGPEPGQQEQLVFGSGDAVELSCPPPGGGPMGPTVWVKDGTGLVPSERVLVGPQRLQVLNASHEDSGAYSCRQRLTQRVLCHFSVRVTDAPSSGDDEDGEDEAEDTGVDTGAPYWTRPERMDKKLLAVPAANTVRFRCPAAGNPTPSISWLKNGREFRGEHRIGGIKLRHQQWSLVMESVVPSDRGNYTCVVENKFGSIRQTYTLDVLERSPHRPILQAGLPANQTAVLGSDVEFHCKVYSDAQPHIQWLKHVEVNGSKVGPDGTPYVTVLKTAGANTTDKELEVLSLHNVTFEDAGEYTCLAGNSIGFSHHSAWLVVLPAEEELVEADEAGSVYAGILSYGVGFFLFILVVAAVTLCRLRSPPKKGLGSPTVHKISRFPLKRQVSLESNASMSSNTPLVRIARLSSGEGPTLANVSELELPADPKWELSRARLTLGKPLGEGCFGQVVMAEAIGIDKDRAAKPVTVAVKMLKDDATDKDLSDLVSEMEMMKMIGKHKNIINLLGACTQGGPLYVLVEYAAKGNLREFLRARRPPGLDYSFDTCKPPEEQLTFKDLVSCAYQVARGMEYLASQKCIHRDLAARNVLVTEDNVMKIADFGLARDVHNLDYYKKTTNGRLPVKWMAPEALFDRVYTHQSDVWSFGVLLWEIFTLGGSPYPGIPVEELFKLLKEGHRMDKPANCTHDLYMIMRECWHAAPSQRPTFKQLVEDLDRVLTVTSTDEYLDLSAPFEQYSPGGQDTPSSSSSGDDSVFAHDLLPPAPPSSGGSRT
# Protocol: FIGS. 6 A-B are flow cytometry charts of human primary myeloma cells treated with anti-FGFR antibody PRO-001. A: Freshly isolated BMSCs were stained with PRO-001 (black line) or control antibody (grey line) and then stained with PE-conjugated anti-human secondary antibody. B: Primary myeloma cells were incubated in the absence (filled) or presence of FGF (light line) or pre-incubated with 5 μg/ml PRO-001 (dark line) for 2 h and then stimulated with FGF. ERK1/2 phosphorylation was assessed by flow cytometry analysis.
# Cells (5×10^5) were washed in cold phosphate-buffered saline (PBS) and then incubated for 30 minutes with one of the following: PRO-001 Fab or a human Fab control antibody, rabbit anti-FGFR3 (100) or rabbit preimmune serum in PBS. The cells were then stained with PE-conjugated goat antihuman F(ab′)2 secondary antibody or goat anti-rabbit IgG-PE for 30 minutes on ice. Flow cytometry was performed on a FACSCaliber flow cytometer (BD Biosciences, San Jose, Calif.) and analyzed using Cellquest software (Becton Dickinson). To assess the ability of FGF ligand to compete for binding, cells were incubated in the presence or absence of 30 ng/ml FGF and 5 μg/ml heparin for 30 minutes and then stained with PRO-001 Fab as describe above.
# The next experiments were designed to examine the effect of PRO-001 on primary human MM cells. […]
molecule,measurement,setting,value
B1,Proliferation of FDCP-1 cells expressing FGFR2,[1],unaffected
same,Staining of primary cells expressing FGFR3,[2],identified
